Test results: patent publication US20110207628A1 (UNIVERSITY OF MIAMI, published 2011)

Target: T1, GST-tubby-F (GST fused to full-length mouse tubby) (Schistosoma japonicum; mouse, UniProt P50586 1-505)
T1 construct: mature; Expressed in E. coli BL21(DE3) from pGEX-2T; not shown: glutathione S-transferase of pGEX-2T (Schistosoma japonicum)
T1 sequence (looked up): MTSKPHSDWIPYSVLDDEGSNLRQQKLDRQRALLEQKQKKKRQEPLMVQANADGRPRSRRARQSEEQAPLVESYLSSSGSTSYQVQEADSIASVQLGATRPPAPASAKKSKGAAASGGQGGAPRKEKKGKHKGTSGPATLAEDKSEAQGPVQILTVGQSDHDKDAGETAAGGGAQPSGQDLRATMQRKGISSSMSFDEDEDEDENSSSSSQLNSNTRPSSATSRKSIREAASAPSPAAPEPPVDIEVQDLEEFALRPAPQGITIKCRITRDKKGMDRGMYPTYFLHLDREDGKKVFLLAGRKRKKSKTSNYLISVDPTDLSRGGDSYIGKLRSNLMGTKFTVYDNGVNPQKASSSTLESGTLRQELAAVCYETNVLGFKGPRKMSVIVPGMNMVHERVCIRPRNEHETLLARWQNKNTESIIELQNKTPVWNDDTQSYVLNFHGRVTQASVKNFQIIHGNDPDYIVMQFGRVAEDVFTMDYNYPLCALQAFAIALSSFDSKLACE
Assay: GST pull-down: GST-tubby with lysate of cells expressing the FLAG-tagged protein, glutathione resin, Western blot with anti-FLAG mAb

binding result: no binding
B1: FLAG-tagged Tulp3 (full-length mouse Tulp3 with N-terminal FLAG tag) (other)
chain: DYKDDDDKMEAARCAPGPRGDSAFDDETLRLRQLKLDNQRALLEKKQRKKRLEPLMVQPNPEARLRRLKPRGSEEHTPLVDPQMPRSDVILHGIDGPAAFLKPEAQDLESKPQVLSVGSPAPEEGTEGSADGESPEETAPKPDLQEILQKHGILSSVNYDEEPDKEEDEGGNLSSPSARSEESAAASQKAASETGASGVTAQQGDAQLGEVENLEDFAYSPAPRGVTVKCKVTRDKKGMDRGLFPTYYMHLEREENRKIFLLAGRKRKKSKTSNYLVSTDPTDLSREGESYIGKLRSNLMGTKFTVYDHGVNPVKAQGLVEKAHTRQELAAICYETNVLGFKGPRKMSVIIPGMNMNHERIPFRPRNEHESLLSKWQNKSMENLIELHNKAPVWNDDTQSYVLNFHGRVTQASVKNFQIVHGNDPDYIVMQFGRVADDVFTLDYNYPLCALQAFAIGLSSFDSKLACE
notes: mature; Expressed from pcDNA3 in Neuro-2a cells; used as cell lysate or on membrane vesicles
